{"source": "paper PMC4357707", "about": "(Nucleic Acids Research, 2015)", "binders": {"B1": {"name": "miR173/miR173* (dsRNA)", "RNA 1": "UUCGCUUGCAGAGAGAAAUCAC", "RNA 2": "GAUUCUCUGUGUAAGCGAAAG"}}, "key": {"HEN1-K22A": {"molecular_target": "T1, HEN1-K22A (Arabidopsis thaliana, UniProt Q9C5Q8 1-942, K22A)", "T1 sequence": "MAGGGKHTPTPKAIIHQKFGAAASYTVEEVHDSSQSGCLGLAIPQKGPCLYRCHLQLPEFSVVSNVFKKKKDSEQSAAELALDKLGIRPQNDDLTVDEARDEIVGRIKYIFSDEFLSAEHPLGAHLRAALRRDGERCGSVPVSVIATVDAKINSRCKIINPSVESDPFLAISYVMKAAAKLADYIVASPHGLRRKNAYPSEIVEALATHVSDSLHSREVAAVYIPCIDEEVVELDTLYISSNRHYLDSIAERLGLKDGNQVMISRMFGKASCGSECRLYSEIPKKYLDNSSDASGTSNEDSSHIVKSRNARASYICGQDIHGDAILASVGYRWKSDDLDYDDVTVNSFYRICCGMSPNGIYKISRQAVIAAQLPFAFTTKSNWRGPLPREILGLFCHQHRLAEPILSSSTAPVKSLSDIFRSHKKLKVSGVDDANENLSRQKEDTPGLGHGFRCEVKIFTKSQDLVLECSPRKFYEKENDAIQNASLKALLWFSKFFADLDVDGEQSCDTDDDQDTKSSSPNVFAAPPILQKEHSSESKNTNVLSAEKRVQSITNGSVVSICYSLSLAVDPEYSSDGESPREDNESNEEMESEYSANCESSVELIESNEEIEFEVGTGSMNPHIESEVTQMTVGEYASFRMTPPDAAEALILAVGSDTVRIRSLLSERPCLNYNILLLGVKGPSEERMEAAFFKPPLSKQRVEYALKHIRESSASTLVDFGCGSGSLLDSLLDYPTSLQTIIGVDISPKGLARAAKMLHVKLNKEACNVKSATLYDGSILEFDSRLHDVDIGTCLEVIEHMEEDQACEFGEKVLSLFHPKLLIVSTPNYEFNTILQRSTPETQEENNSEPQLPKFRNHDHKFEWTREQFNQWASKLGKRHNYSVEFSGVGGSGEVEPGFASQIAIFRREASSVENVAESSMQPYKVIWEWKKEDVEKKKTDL", "assay": "EMSA"}, "HEN1-RHK389,397,477AAA": {"molecular_target": "T2, HEN1-RHK389,397,477AAA (Arabidopsis thaliana, UniProt Q9C5Q8 1-942, R389A;H397A;K477A)", "T2 sequence": "T1 sequence with A22K, R389A, H397A, K477A", "assay": "EMSA"}}, "note": "Substitutions are numbered along the chain they refer to."}
{"binder": "B1", "values": [{"measurement": "binding result", "setting": "HEN1-K22A", "result": "binds"}, {"measurement": "Kd", "setting": "HEN1-RHK389,397,477AAA", "result": "65 ± 12", "unit": "nM"}]}
